Patent US20200199204A1 (UNITED STATES OF AMERICA AS REPRESENTED BY THE SECRETARY …, published 2020)

Legend:
Assay in all cases: cell-based or functional assay
HIV-1 Env of ZM249.1 = HIV-1 Env of ZM249.1 (HIV-1)
HIV-1 Env of 6405.v4.c34 = HIV-1 Env of 6405.v4.c34 (HIV-1)
HIV-1 Env of MB201 = HIV-1 Env of MB201 (HIV-1)
HIV-1 Env of RHPA.7 = HIV-1 Env of RHPA.7 (HIV-1)
HIV-1 Env of PVO.04 = HIV-1 Env of PVO.04 (HIV-1)
HIV-1 Env of ZM233.6 = HIV-1 Env of ZM233.6 (HIV-1)
HIV-1 Env of QH0692.42 = HIV-1 Env of QH0692.42 (HIV-1)
HIV-1 Env of CAP244.D3 = HIV-1 Env of CAP244.D3 (HIV-1)
HIV-1 Env of SC422.8 = HIV-1 Env of SC422.8 (HIV-1)
HIV-1 Env of Q769.d22 = HIV-1 Env of Q769.d22 (HIV-1)
HIV-1 Env of REJO.67 = HIV-1 Env of REJO.67 (HIV-1)
HIV-1 Env of Q23.17 = HIV-1 Env of Q23.17 (HIV-1)
HIV-1 Env of MB539.2B7 = HIV-1 Env of MB539.2B7 (HIV-1)
HIV-1 Env of TRJO.58 = HIV-1 Env of TRJO.58 (HIV-1)
HIV-1 Env of 96ZM651.02 = HIV-1 Env of 96ZM651.02 (HIV-1)
HIV-1 Env of 0260.v5.c36 = HIV-1 Env of 0260.v5.c36 (HIV-1)
HIV-1 Env of CAP256.SU = HIV-1 Env of CAP256.SU (HIV-1)
HIV-1 Env of WITO.33 = HIV-1 Env of WITO.33 (HIV-1)
HIV-1 Env of CNE3 = HIV-1 Env of CNE3 (HIV-1)
HIV-1 Env of ZM109.4 = HIV-1 Env of ZM109.4 (HIV-1)
HIV-1 Env of DU422.01 = HIV-1 Env of DU422.01 (HIV-1)
HIV-1 Env of RW020.2 = HIV-1 Env of RW020.2 (HIV-1)
HIV-1 Env of CAP210.E8 = HIV-1 Env of CAP210.E8 (HIV-1)
HIV-1 Env of KER2018.11 = HIV-1 Env of KER2018.11 (HIV-1)
HIV-1 Env of AC10.29 = HIV-1 Env of AC10.29 (HIV-1)
HIV-1 Env of CM244.ec1 = HIV-1 Env of CM244.ec1 (HIV-1)
HIV-1 Env of Q461.e2 = HIV-1 Env of Q461.e2 (HIV-1)
HIV-1 Env of Q842.d12 = HIV-1 Env of Q842.d12 (HIV-1)
HIV-1 Env of ZM135.10a = HIV-1 Env of ZM135.10a (HIV-1)
HIV-1 Env of ZM197.7 = HIV-1 Env of ZM197.7 (HIV-1)
HIV-1 Env of CAP256.PI = HIV-1 Env of CAP256.PI (HIV-1)
HIV-1 Env of CAP45.G3 = HIV-1 Env of CAP45.G3 (HIV-1)
HIV-1 Env of ZM214.15 = HIV-1 Env of ZM214.15 (HIV-1)
HIV-1 Env of BG505.w6m = HIV-1 Env of BG505.w6m (HIV-1)
HIV-1 Env of KER2008.12 = HIV-1 Env of KER2008.12 (HIV-1)
HIV-1 Env of UG037.8 = HIV-1 Env of UG037.8 (HIV-1)
HIV-1 Env of THRO.18 = HIV-1 Env of THRO.18 (HIV-1)
HIV-1 Env of CAAN.A2 = HIV-1 Env of CAAN.A2 (HIV-1)
HIV-1 Env of TH976.17 = HIV-1 Env of TH976.17 (HIV-1)
HIV-1 Env of Q168.a2 = HIV-1 Env of Q168.a2 (HIV-1)
HIV-1 Env of 3016.V5.c36 = HIV-1 Env of 3016.V5.c36 (HIV-1)
HIV-1 Env of DU156.12 = HIV-1 Env of DU156.12 (HIV-1)
HIV-1 Env of 6535.3 = HIV-1 Env of 6535.3 (HIV-1)
HIV-1 Env of DU172.17 = HIV-1 Env of DU172.17 (HIV-1)
HIV-1 Env of C1080.c3 = HIV-1 Env of C1080.c3 (HIV-1)
HIV-1 Env of ZM53.12 = HIV-1 Env of ZM53.12 (HIV-1)
HIV-1 Env of TRO.11 = HIV-1 Env of TRO.11 (HIV-1)
HIV-1 Env of Q259.d2.17 = HIV-1 Env of Q259.d2.17 (HIV-1)
HIV-1 Env of 191821.E6.1 = HIV-1 Env of 191821.E6.1 (HIV-1)

B1: CAP256-VRC26.05 (antibody, V domains shown)
VH: EVQLVESGGGVVQPGRSLRLSCAASHFSLSSYGMHWVRQAPGKGLEWVTGISFAGTKTYYGDSVRGRFTVSRDISKNTLFLQMNSLRPDDTAMYYCARDQRYYECEEWASDYYDFGREQPCLDPRGVVGIFDLWGQGTMVTVSS
VL: QSALTQPPSVSAAPGQKVTISCSGNIGNNYVSWYQQVPGTAPKLLIYENNKRPSGIPDRFSGSKSGTSATLVITGLQTGDEADFYCGTWGGSLRTGGVLGTGTRVTVLG
neutralization IC50 (HIV-1 Env of ZM249.1): > 50 µg/mL | neutralization IC50 (HIV-1 Env of 6405.v4.c34): > 50 µg/mL | neutralization IC50 (HIV-1 Env of MB201): > 50 µg/mL | neutralization IC50 (HIV-1 Env of RHPA.7): > 50 µg/mL | neutralization IC50 (HIV-1 Env of PVO.04): 44.4 µg/mL | neutralization IC50 (HIV-1 Env of ZM233.6): 0.003 µg/mL | neutralization IC50 (HIV-1 Env of QH0692.42): > 50 µg/mL | neutralization IC50 (HIV-1 Env of CAP244.D3): > 50 µg/mL | neutralization IC50 (HIV-1 Env of SC422.8): > 50 µg/mL | neutralization IC50 (HIV-1 Env of Q769.d22): > 50 µg/mL | neutralization IC50 (HIV-1 Env of REJO.67): > 50 µg/mL | neutralization IC50 (HIV-1 Env of Q23.17): > 50 µg/mL | neutralization IC50 (HIV-1 Env of MB539.2B7): > 50 µg/mL | neutralization IC50 (HIV-1 Env of TRJO.58): > 50 µg/mL | neutralization IC50 (HIV-1 Env of 96ZM651.02): > 50 µg/mL | neutralization IC50 (HIV-1 Env of 0260.v5.c36): > 50 µg/mL | neutralization IC50 (HIV-1 Env of CAP256.SU): 0.007 µg/mL | neutralization IC50 (HIV-1 Env of WITO.33): > 50 µg/mL | neutralization IC50 (HIV-1 Env of CNE3): > 50 µg/mL | neutralization IC50 (HIV-1 Env of ZM109.4): 26.5 µg/mL | neutralization IC50 (HIV-1 Env of DU422.01): > 50 µg/mL | neutralization IC50 (HIV-1 Env of RW020.2): > 50 µg/mL | neutralization IC50 (HIV-1 Env of CAP210.E8): 0.013 µg/mL | neutralization IC50 (HIV-1 Env of KER2018.11): 0.012 µg/mL | neutralization IC50 (HIV-1 Env of AC10.29): > 50 µg/mL | neutralization IC50 (HIV-1 Env of CM244.ec1): 0.517 µg/mL | neutralization IC50 (HIV-1 Env of Q461.e2): > 50 µg/mL | neutralization IC50 (HIV-1 Env of Q842.d12): > 50 µg/mL | neutralization IC50 (HIV-1 Env of ZM135.10a): > 50 µg/mL | neutralization IC50 (HIV-1 Env of ZM197.7): 0.113 µg/mL | neutralization IC50 (HIV-1 Env of CAP256.PI): > 50 µg/mL | neutralization IC50 (HIV-1 Env of CAP45.G3): > 50 µg/mL | neutralization IC50 (HIV-1 Env of ZM214.15): > 50 µg/mL | neutralization IC50 (HIV-1 Env of BG505.w6m): > 50 µg/mL | neutralization IC50 (HIV-1 Env of KER2008.12): > 50 µg/mL | neutralization IC50 (HIV-1 Env of UG037.8): > 50 µg/mL | neutralization IC50 (HIV-1 Env of THRO.18): > 50 µg/mL | neutralization IC50 (HIV-1 Env of CAAN.A2): > 50 µg/mL | neutralization IC50 (HIV-1 Env of TH976.17): > 50 µg/mL | neutralization IC50 (HIV-1 Env of Q168.a2): > 50 µg/mL | neutralization IC50 (HIV-1 Env of 3016.V5.c36): 0.011 µg/mL | neutralization IC50 (HIV-1 Env of DU156.12): > 50 µg/mL | neutralization IC50 (HIV-1 Env of 6535.3): > 50 µg/mL | neutralization IC50 (HIV-1 Env of DU172.17): > 50 µg/mL | neutralization IC50 (HIV-1 Env of C1080.c3): > 50 µg/mL | neutralization IC50 (HIV-1 Env of ZM53.12): 0.012 µg/mL | neutralization IC50 (HIV-1 Env of TRO.11): > 50 µg/mL | neutralization IC50 (HIV-1 Env of Q259.d2.17): 0.023 µg/mL | neutralization IC50 (HIV-1 Env of 191821.E6.1): > 50 µg/mL
